Experimental data from the Immune Epitope Database (IEDB).

What was measured:
Test in all cases: IEDB peptide-MHC binding, purified MHC/competitive/radioactivity; filed as Kd, often an IC50 or EC50 that approximates it; ≥ and ≤ were set here for values at or beyond the usual limits of such assays
HLA-A*03:01 = target: HLA-A*03:01
HLA-A*11:01 = target: HLA-A*11:01
HLA-A*31:01 = target: HLA-A*31:01
HLA-A*33:01 = target: HLA-A*33:01
HLA-A*68:01 = target: HLA-A*68:01
[1] = source organism: Vaccinia virus WR
[2] = source organism: Dengue virus 3 Martinique/1243/1999
[3] = source organism: Mammarenavirus machupoense
[4] = source organism: SARS coronavirus Tor2
[5] = source organism: Mopeia Lassa virus reassortant 29
[6] = source organism: Lymphocytic choriomeningitis virus (strain Armstrong)
[7] = source organism: Dengue virus 1 Brazil/97-11/1997
[8] = source organism: Mammarenavirus juninense
[9] = source organism: Dengue virus 2 Jamaica/1409/1983
[10] = source organism: Dengue virus 4 Philippines/H241/1956

Sequence	Kd (HLA-A*03:01; [1])	Kd (HLA-A*11:01; [1])	Kd (HLA-A*31:01; [1])	Kd (HLA-A*33:01; [1])	Kd (HLA-A*68:01; [1])	also measured
KFLEFSNRVY	≥ 39800 nM	10100 nM	24.5 nM	≥ 70000 nM	≥ 68800 nM	
KPKPAVRFAI			≥ 70000 nM			
KQYDSTDFK	61.8 nM	33.5 nM	70.9 nM	≥ 25500 nM	1860 nM	
KSINKVYGRY	2610 nM	1190 nM	64.3 nM	≥ 70000 nM	≥ 33500 nM	
KSISSMTIR	1280 nM	281 nM	3.64 nM	7710 nM	832 nM	
KSPLPSLEY	278 nM	228 nM	7390 nM	≥ 77700 nM	≥ 77700 nM	
KSVTKSSSWK	10 nM	13.8 nM	376 nM	≥ 55700 nM	79 nM	
KTNDINVRRR	64.1 nM	1460 nM	17.9 nM	5470 nM	848 nM	
KVLRENTSPK						Kd (HLA-A*03:01; source organism: Homo sapiens): 28.9 nM
LLIWAYLSKK	42.1 nM	124 nM	1980 nM	2340 nM	363 nM	
LLNGQGPMK						Kd (HLA-A*03:01; [2]): 16.2 nM
LNNSFYYMK						Kd (HLA-A*03:01; [3]): 7240 nM; Kd (HLA-A*11:01; [3]): 619 nM; Kd (HLA-A*31:01; [3]): 26.4 nM; Kd (HLA-A*33:01; [3]): ≥ 77700 nM; Kd (HLA-A*68:01; [3]): 67.7 nM
LQFAYSNRNR						Kd (HLA-A*03:01; [4]): 890 nM; Kd (HLA-A*11:01; [4]): 1730 nM; Kd (HLA-A*31:01; [4]): 5.59 nM; Kd (HLA-A*33:01; [4]): 1270 nM; Kd (HLA-A*68:01; [4]): 1050 nM
LSARNKLFKR	≥ 70100 nM	2680 nM	16.9 nM	1710 nM	124 nM	
LSKRERQLAK	1360 nM	1120 nM	1600 nM	≥ 57900 nM	5940 nM	
LSLSNLDFR	≥ 78000 nM	349 nM	21.7 nM	675 nM	300 nM	
LSPAHLINK	208 nM	39.4 nM	18600 nM	≥ 35800 nM	16300 nM	
LTKFVAAALH						Kd (HLA-A*03:01; [5]): 16000 nM; Kd (HLA-A*11:01; [5]): 5660 nM; Kd (HLA-A*31:01; [5]): 694 nM; Kd (HLA-A*33:01; [5]): 5610 nM; Kd (HLA-A*68:01; [5]): 164 nM
LTKFVSAALH						Kd (HLA-A*31:01; [6]): 864 nM; Kd (HLA-A*33:01; [6]): 3760 nM; Kd (HLA-A*68:01; [6]): 221 nM
LVMAFIAFLR						Kd (HLA-A*11:01; [7]): 1380 nM; Kd (HLA-A*31:01; [7]): 73.5 nM; Kd (HLA-A*33:01; [7]): 106 nM; Kd (HLA-A*68:01; [7]): 31.8 nM
LVVISVIFY	≥ 24400 nM	≥ 36700 nM	10700 nM	≥ 66100 nM	5480 nM	
LWRTLGRNKR						Kd (HLA-A*31:01; source organism: Dengue virus 3 Sri Lanka/1266/2000): 712 nM
MATYGWNLVK						Kd (HLA-A*11:01; [7]): 370 nM
MFEQYFIYTY	18.6 nM	2140 nM	4510 nM	5690 nM	8110 nM	
MFLTSVINR	355 nM	283 nM	1.16 nM	0.841 nM	18.8 nM	

Sequence	Kd (HLA-A*03:01; [1])	Kd (HLA-A*11:01; [1])	Kd (HLA-A*31:01; [1])	Kd (HLA-A*33:01; [1])	Kd (HLA-A*68:01; [1])	also measured
MLNIMNRRK						Kd (HLA-A*03:01; [7]): 21 nM
MLVTPSMTMR						Kd (HLA-A*31:01; [2]): 111 nM; Kd (HLA-A*68:01; [2]): 54.7 nM
MSTYSDICSK	≥ 70100 nM	≥ 69800 nM	≥ 70000 nM	≥ 70000 nM	≥ 70200 nM	
MTSWLDFSH						Kd (HLA-A*03:01; [8]): 548 nM; Kd (HLA-A*11:01; [8]): 116 nM; Kd (HLA-A*31:01; [8]): 176 nM; Kd (HLA-A*33:01; [8]): 13600 nM; Kd (HLA-A*68:01; [8]): 3.36 nM
MVMCGGSLY						Kd (HLA-A*03:01; [4]): 41.9 nM; Kd (HLA-A*11:01; [4]): 73.9 nM; Kd (HLA-A*31:01; [4]): 70.4 nM; Kd (HLA-A*33:01; [4]): 4620 nM; Kd (HLA-A*68:01; [4]): 22.6 nM
MYFHRRDLR						Kd (HLA-A*31:01; [9]): 0.137 nM; Kd (HLA-A*33:01; [9]): 5.64 nM; Kd (HLA-A*68:01; [9]): 346 nM
NLKAMLYIIR	8530 nM	10900 nM	4840 nM	133 nM	209 nM	
NSQIFNIISY	1080 nM	5090 nM	1320 nM	10600 nM	441 nM	
NTIDKSSPLY	7970 nM	1660 nM	≥ 70000 nM	≥ 70000 nM	85.4 nM	
NTTSKMLLNR						Kd (HLA-A*33:01; [10]): 100 nM; Kd (HLA-A*68:01; [10]): 179 nM
QAAILMGLDK						Kd (HLA-A*68:01; [7]): 377 nM
RLKMDKLTLK						Kd (HLA-A*03:01; [7]): 13 nM
RQMEGEGIFK						Kd (HLA-A*03:01; [9]): 21.5 nM; Kd (HLA-A*11:01; [9]): 127 nM
RTLAKEGIKR						Kd (HLA-A*31:01; [9]): 14.3 nM
SAKLRWFVER						Kd (HLA-A*31:01; [9]): 26.3 nM; Kd (HLA-A*33:01; [9]): 46.5 nM
TANPVVTKK						Kd (HLA-A*11:01; [2]): 245 nM
TLGWLLQTPK						Kd (HLA-A*03:01; source organism: Homo sapiens): 7.5 nM
TTSKMLLNR						Kd (HLA-A*11:01; [10]): 178 nM; Kd (HLA-A*68:01; [10]): 59.8 nM
TVCYVLTGR						Kd (HLA-A*31:01; [9]): 10.3 nM; Kd (HLA-A*33:01; [9]): 1.6 nM; Kd (HLA-A*68:01; [9]): 15.2 nM
TYLALMATFK						Kd (HLA-A*33:01; [7]): 11 nM
VTAASAAQR						Kd (HLA-A*68:01; [2]): 43.2 nM
VTHSSAAQR						Kd (HLA-A*31:01; [9]): 25.8 nM; Kd (HLA-A*68:01; [9]): 42 nM
WYLWEVKKQR						Kd (HLA-A*33:01; [9]): 39.7 nM
YTIGTTHFQR						Kd (HLA-A*31:01; [9]): 44.3 nM; Kd (HLA-A*33:01; [9]): 6.12 nM; Kd (HLA-A*68:01; [9]): 17.3 nM
YYCGGLKNVR						Kd (HLA-A*33:01; [9]): 3.1 nM
